Laboratory results as given in patent US20240059758A1 (published 2024).
Read-outs that look alike come from different tables or passages of the source.

Legend:
RBD-mFc [1] = target: T1, RBD-mFc (UniProt P0DTC2 319-591); experiment: ELISA
S1-mFc [2] = target: T2, S1-mFc (UniProt P0DTC2 14-694); experiment: ELISA
[3] = target: T3, receptor binding domain (RBD) of the S1-subunit of SARS-CoV-2 glycoprotein S (UniProt P0DTC2 319-541); experiment: flow
[4] = target: T3, receptor binding domain (RBD) of the …; experiment: flow; remark: listed apart in the source
RBD-mFc [5] = target: T1, RBD-mFc; experiment: ELISA; remark: listed apart in the source
S1-mFc [6] = target: T2, S1-mFc; experiment: ELISA; remark: listed apart in the source
S1- = S1- (UniProt P0DTC2 14-1210); experiment: ELISA

B1: STE73-2C2 (antibody, V domains shown)
VH: QVQLVESGGGLVQPGGSLRLSCAASGITVSSNYMSWVRQAPGKGLEWVSVIYSGGSTFYADSVKGRFTISRDNSKNTLYLQMNSLRAEDTGVYYCARGHDNLDYWGQGTLVTVSS
VL: LPVLTQPHSVSESPGKTVIISCTGSSDSIASNYVQWYQQRPGSAPTTVIYEDNKRPSGVPDRFSGSTDSSSNSASLTISGLKTEDEAEYYCQSYDSNNHWVFGGGTKLTVL
EC50 (RBD-mFc [1]): 9.6 nM | EC50 (S1-mFc [2]): 17.9 nM | IC50 [3]: 3 nM

B2: STE70-1E12 (antibody, V domains shown)
VH: QMQLVQSGAEVKKPGASVKVSCKASGYTFTGYYMHWVRQAPGQGLEWMGRINPNSGGTNYAQKFQGRVTMTRDTSTSTAYMELSRLRSDDTAVYYCVRDGYNFNNWFDPWGQGTLVTVSS
VL: NFMLTQPHSVSGSPGETITISCTGSGGSIASNYVQWYRQRPGSAPTIVIYEDTQRPSGVPDRFSGSIDSSSNSASLTISGLKTEDEADYYCQSSESTNHVMFGGGSKLTVL
IC50 [4]: 3.2 nM | EC50 (RBD-mFc [5]): 1.1 nM | EC50 (S1-mFc [6]): 1.5 nM

B3: STE73-6C1 (antibody, V domains shown)
VH: QVQLVQSGGGVVQPGRSLRLSCAASGFTFSSYAMHWVRQAPGKGLEWVAVISYDGSNKYYADSVKGRFTISRDNSKNTLYLQMNSLRAEDTAVYYCARSYVGGMDVWGQGTTVTVSS
VL: QLVLTQSPSVSGAPGQSVTISCTGTDSNIGAGYNVHWYQQLPGAAPKLIISYTDNRPSGVPDRFSGSKSGTSASLAITGLQAEDEADYYCQSSDRTLVGSLFGTGTKVTVL
EC50 (RBD-mFc [1]): 2 nM | EC50 (S1-mFc [2]): 2.8 nM | IC50 [3]: 4.1 nM

B4: STE73-9G3 (antibody, V domains shown)
VH: QVQLQESGGGLVQPGGSLRLSCAASGFTFSSYAMSWVRQAPGKGLEWVSAISGSGGSTYYADSVKGRFTISRDNSKNTLYLQMNSLRAEDTAVYYCARDLVLGSGSSNDWGRGTLVTVSS
VL: QPVLTQPPSVSGAPGQSVTISCTGTDSNIGAGYNVHWYQQLPGAAPKLIISYTDNRPSGVPDRFSGSKSGTSASLAITGLQAEDEADYYCQSSDRTLVGSLFGTGTKVTVL
EC50 (RBD-mFc [1]): 1.4 nM | EC50 (S1-mFc [2]): 1.6 nM | IC50 [3]: 3.4 nM

B5: STE73-2B2 (antibody, V domains shown)
VH: QVQLVQSGAEVKKPGASVKVSCKASGYTFTGYYMHWVRQAPGQGLEWMGWINPNSGGTNYAQKFQGRVTITRDTSASTAYMELSSLRSEDTAVYYCARVSGWYFGAFDIWGQGTMVTVSS
VL: LPVLTQPHSLSESPGKTVNISCTGSSGSIASNYVQWYQQRPGSAPTTVIYEDSHRPSGVPDRFSGSIDSSSNSASLSISGLKTEDEADYYCQSYDSSNNQWVFGGGTKLTVL
EC50 (RBD-mFc [1]): 0.5 nM | EC50 (S1-mFc [2]): 0.8 nM | IC50 [3]: 1.7 nM

B6: STE72-8A2 (antibody, V domains shown)
VH: QVQLVQSGAEVKKPGASVKVSCKASGYTFTSYGISWVRQAPGQGLEWMGWISAYNGNTNYAQKLQGRVTMTTDTSTSTAYMELRSLRSDDTAVYYCARFFYDSSGYSTDYWGQGTLVTVSS
VL: not shown
IC50 [4]: 1.5 nM | EC50 (RBD-mFc [5]): 1.5 nM | EC50 (S1-mFc [6]): 2.3 nM

B7: STE72-2G4 (antibody, V domains shown)
VH: QVQLVQSGAEVKKPGASVKVSCKASGYTFTSYGISWVRQAPGQGLEWMGWISAYNGNTNYAQKLQGRVTMTTDTSTSTAYMELRSLRSDDTAVYYCARFFYDSSGYSTDYWGQGTLVTVSS
VL: ETTLTQSPAFMSVTPGDRAILSCRASQSVDSHLAWYHQKPGQPPRLLIYGASTRATGIPARFSGSRSGTEFTLTISGLQSEDLGVYYCQQYASWPPGYNFGQGTKLEIK
IC50 [4]: 3.7 nM | EC50 (RBD-mFc [5]): 0.7 nM | EC50 (S1-mFc [6]): 0.9 nM

B8: STE72-8A6 (antibody, V domains shown)
VH: QVQLVQSGAEVKKPGASVKVSCKASGYTFTSYGISWVRQAPGQGLEWMGWISAYNGNTNYAQKLQGRVTMTTDTSTSTAYMELRSLRSDDTAVYYCARFFYDSSGYSTDYWGQGTLVTVSS
VL: DIVMTQSPSTLSASVGDRVTISCRASQNIGTWLAWYQQKPGKAPKLLISKASSLESGVPSRFSGSGSGTDFTLTISSLQPDDFATYYCQQYDSYLFTFGQGTKLEIR
IC50 [4]: 2.8 nM | EC50 (RBD-mFc [5]): 1.5 nM | EC50 (S1-mFc [6]): 2.9 nM

B9: STE72-1B6 (antibody, V domains shown)
VH: QVKLVQSGGGLVQPGGSLRLSCAASGFTFSSYAMSWVRQAPGKGLEWVSGISGSGGSTYYADSVKGRFTISRDNSKNTLYLQVNSLRAEDTAVYYCAKAPYGDFRGLWYFDYWGQGTLVTVSS
VL: DIVMTQSPFSVSASVGDRVTISCRASQDIRSWLAWYQQKPGKAPQLLIYDASSLQSGVPSRFSGSGSGTDFTLTISSLQPEDFATYYCQQADSVPLTFGGGTKVEIQ
IC50 [4]: 4.8 nM | EC50 (RBD-mFc [5]): 1.6 nM | EC50 (S1-mFc [6]): 2.2 nM

B10: STE73-6B10 (antibody, V domains shown)
VH: QVQLVQSGAEVKKPGASVKVSCKASGYTFTSYGISWVRQAPGQGLEWMGWINPNSGGTNYAQKFQGRVTMTRDTSISTAYMELSRLRSDDTAVYYCARDRLRYGDSGSYYYYGMDVWGQGTTVTVSS
VL: QSALTQPRSVSGSPGQSVTISCTGTSSDVGGYNYVSWYQQHPGKAPKLLISEVTRRPSGVPDRFSGSKSGNTASLTVSGLQTEDEADYYCGSYAGSNTWVFGGGTKLTVL
EC50 (RBD-mFc [1]): 17.3 nM | EC50 (S1-mFc [2]): 15.3 nM | IC50 [3]: 73 nM

B11: STE72-4E12 (antibody, V domains shown)
VH: QVQLVQSGAEVKKPGASVKVSCKASGYTFTSYYMHWVRQAPGQGLEWMGIINPSGGSTSYAQKFQGRVTMTRDTSTSTVYMELSSLRSEDTAVYYCARDLSGGLDYWGQGTLVTVSS
VL: ETTLTQSPATLSVSPGERVTLACRAGQTISSKLAWYRQKPGQAPSLLIYDASTRATGVPARFSGSGSGTEFTLTISSLQSEDFAVYYCQQYSDWPPTFGQGTKVEIK
IC50 [4]: 3 nM | EC50 (S1-): 11.6 nM | EC50 (RBD-mFc [5]): 4.7 nM | EC50 (S1-mFc [6]): 10.4 nM

B12: STE73-2E9 (antibody, V domains shown)
VH: QVQLVQSGAEVKKPGASVKVSCKASGYTFTSYGISWVRQAPGQGLEWMGWISAYNGNTNYAQKLQGRVTMTTDTSTSTAYMELRSLRSDDTAVYYCARGKFDYWGQGTLVTVSS
VL: QSVLTQPPSVSEAPSQRVTISCSGSSSNIGNNAVNWYQQLPGKAPKLLIYYDDVLPSGVSDRFSGSKSGTSASLAISGLQSGDEADYYCAAWDDSLSGVVFGGGTKLTVL
EC50 (RBD-mFc [1]): 0.7 nM | EC50 (S1-mFc [2]): 0.6 nM | IC50 [3]: 3.4 nM

B13: STE73-2G8 (antibody, V domains shown)
VH: QVQLVQSGGGLVKPGGSLRLSCAASGITVSSNYMSWVRQAPGKGLEWVSILYSGGTTFYTDSVKGRFTISRDNSKNTLHLQMNSLRAEDTAVYYCARWSGTYYDYWGQGTLVTVSS
VL: SSELTQDPAVSVALGQTVRITCQGDSLRSYYASWYQQKPGQAPVLVIYGKNNRPSGIPDRFSGSSSGNTASLTITGAQAEDEADYYCNSRDSTNDPVLFGAGTKLTVL
EC50 (RBD-mFc [1]): 0.7 nM | EC50 (S1-mFc [2]): 1 nM | IC50 [3]: 2.8 nM
